What was measured:
[1] = molecular target: T1, human CEACAM5-his (ACRO CE5-H5226) (human, UniProt P06731 35-685); experiment: ELISA on coated human CEACAM5, OD450
T1 construct: Bought protein; not shown: His tag
T1 sequence (looked up): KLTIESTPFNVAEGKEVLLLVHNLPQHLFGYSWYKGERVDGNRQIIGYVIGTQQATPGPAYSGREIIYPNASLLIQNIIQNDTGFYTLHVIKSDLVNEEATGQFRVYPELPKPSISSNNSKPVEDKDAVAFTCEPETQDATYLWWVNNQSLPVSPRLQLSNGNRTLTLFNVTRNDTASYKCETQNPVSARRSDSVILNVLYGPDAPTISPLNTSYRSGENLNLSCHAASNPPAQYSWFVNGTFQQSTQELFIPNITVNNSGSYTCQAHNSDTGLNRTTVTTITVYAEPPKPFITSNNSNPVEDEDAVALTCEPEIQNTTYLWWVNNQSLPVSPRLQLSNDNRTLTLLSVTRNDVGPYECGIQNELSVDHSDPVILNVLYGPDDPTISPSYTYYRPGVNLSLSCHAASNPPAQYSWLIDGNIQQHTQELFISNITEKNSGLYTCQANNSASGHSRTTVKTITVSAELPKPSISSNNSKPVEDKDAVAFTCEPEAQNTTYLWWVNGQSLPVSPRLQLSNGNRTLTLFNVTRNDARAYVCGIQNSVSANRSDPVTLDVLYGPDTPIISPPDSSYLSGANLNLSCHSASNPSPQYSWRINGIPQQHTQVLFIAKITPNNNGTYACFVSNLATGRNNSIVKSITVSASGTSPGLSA
Procedure: The binding activity of the antibodies to human CEACAM5, human CEACAM6, and human CEACAM6 (AB) proteins was detected by ELISA. The plate coated with proteins was incubated at 4° C. overnight, and the 96-well ELISA plate blocked with 2% PBS-BSA was added with the antibody to be detected and incubated at 37° C. for 1 h. After washing 3 times with PBS containing 0.05% Tween, the absorbance value of each well was read at wavelength 450 nm with the gradient-diluted mouse-derived candidate antibody as the primary antibody and anti-mouse-IgG-FC-HRP as the secondary antibody, and the absorbance value of each well was read at wavelength 450 nm after the TMB color development.

mouse CEACAM5 = molecular target: T2, mouse CEACAM5 (mouse, UniProt Q3UKK2 35-947, limits assumed); experiment: ELISA on coated protein, OD450
T2 sequence (looked up): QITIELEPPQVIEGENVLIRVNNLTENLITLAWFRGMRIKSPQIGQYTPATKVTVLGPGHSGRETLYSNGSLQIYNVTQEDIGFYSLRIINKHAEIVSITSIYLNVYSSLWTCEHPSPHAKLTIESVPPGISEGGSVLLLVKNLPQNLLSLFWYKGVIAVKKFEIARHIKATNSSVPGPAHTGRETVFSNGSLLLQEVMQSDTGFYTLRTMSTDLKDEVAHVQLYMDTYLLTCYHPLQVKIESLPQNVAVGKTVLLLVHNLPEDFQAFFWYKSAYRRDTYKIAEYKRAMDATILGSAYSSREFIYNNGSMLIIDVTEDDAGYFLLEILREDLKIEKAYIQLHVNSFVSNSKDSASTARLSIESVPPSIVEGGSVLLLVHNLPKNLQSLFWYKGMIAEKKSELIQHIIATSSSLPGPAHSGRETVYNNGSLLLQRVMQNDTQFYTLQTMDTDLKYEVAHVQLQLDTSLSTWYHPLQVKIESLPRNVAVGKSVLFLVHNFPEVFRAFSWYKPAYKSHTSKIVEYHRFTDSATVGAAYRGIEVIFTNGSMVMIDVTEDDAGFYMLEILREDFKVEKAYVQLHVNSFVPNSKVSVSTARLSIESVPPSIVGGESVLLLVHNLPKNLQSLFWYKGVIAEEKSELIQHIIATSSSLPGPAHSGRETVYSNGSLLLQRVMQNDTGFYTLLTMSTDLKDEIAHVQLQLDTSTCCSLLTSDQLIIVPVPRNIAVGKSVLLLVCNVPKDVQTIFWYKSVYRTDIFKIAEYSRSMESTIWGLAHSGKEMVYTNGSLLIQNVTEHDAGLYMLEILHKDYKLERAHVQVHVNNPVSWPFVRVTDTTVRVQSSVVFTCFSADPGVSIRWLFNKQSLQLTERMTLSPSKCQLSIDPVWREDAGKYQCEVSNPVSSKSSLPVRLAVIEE
Procedure: The affinity of the antibodies to monkey CEACAM5, monkey CEACAM6, and mouse CEACAM5 proteins was determined by ELISA. The plates encapsulated with […] proteins were incubated at 4° C. overnight, and the antibodies to be detected were added to 96-well ELISA plates after being blocked with 2% PBS-BSA and incubated at 37° C. for 1 h. After washing 3 times with PBS containing 0.05% Tween, the absorbance value of each well was read at wavelength 450 nm with the antibody to be detected as the primary antibody and Goat anti-mouse IgG-FC-HRP as the secondary antibody, and the absorbance value of each well was read at wavelength 450 nm after the TMB color development. The specific binding to CEACAM5 and CEACAM6 of mouse and monkey was detected by Elisa method.

[2] = molecular target: T3, CEACAM6 on the surface of the tumor cells (HPAFII cells) (UniProt P40199 35-320); experiment: flow cytometry on HPAFII cells (Mean-FITC); the cells carry CEACAM5 and CEACAM6, signal not divided between the two
T3 construct: whole, on cells
T3 sequence (looked up): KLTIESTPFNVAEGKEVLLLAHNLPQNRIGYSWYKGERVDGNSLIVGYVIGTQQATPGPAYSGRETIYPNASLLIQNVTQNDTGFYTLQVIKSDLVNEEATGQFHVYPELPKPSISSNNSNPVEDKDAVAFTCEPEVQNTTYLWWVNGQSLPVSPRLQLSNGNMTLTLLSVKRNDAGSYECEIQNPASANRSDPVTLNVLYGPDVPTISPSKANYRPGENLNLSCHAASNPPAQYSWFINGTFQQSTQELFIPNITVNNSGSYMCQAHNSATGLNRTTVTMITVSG
Procedure: (§1) The antibody to be tested was taken as the initial concentration of 200 nM and diluted 5-fold with 6 gradients. The HPAFII cells (From USTC […] FOR ADVANCED STUDIES) in the incubator were taken out, and the cell suspension was transferred to a 15 mL centrifuge tube, centrifuged, and counted by resuspension in PBS. A blank control group (Blank), a negative control group (NC), an experimental group, a positive control group and the irrelevant antibody group were kept. […] The cell suspension was spread in a 96-well plate according to about 3×10⁵ cells/well. Centrifugation (1000 rpm, 5 min) was performed, followed by washing with PBS, re-centrifugation, and repeated twice to remove media residues. The supernatant was discarded, 100 μL of primary antibody solution and irrelevant antibody solution were added to the experimental group and irrelevant antibody group, respectively, and the cells were resuspended and incubated at room temperature for 1 h. The blank group, and the negative control group were incubated with an equal amount of PBS.
(§2) After 1 h, PBS was added to wash twice. After the supernatant was discarded, 100 μL of fluorescent secondary antibody dilution (Mouse-derived secondary antibody from Abcam ab6785) was added to each sample group, except for the blank group which was added with 100 μL of PBS. After incubation at room temperature and protected from light for 0.5 h, centrifugation was performed and PBS added to wash the samples twice. After the supernatant was discarded, 120 μL of PBS was added to resuspend and sequentially flow cytometry was performed to detect the mean fluorescence intensity. The concentration of the antibody was logarithmically taken as the horizontal coordinate, and the Sigmoidaldose-response (VariableSlope) method (GraphPadPrism Software, GraphPadSoftware, San Diego, California) was chosen to perform a nonlinear regression to obtain the binding activity curves of the antibody on HPAFII cells.

[3] = molecular target: T4, CEACAM5 on the surface of the tumor cells (HPAFII cells) (UniProt P06731 35-685); experiment: as above
T4 construct: whole, on cells
T4 sequence (looked up): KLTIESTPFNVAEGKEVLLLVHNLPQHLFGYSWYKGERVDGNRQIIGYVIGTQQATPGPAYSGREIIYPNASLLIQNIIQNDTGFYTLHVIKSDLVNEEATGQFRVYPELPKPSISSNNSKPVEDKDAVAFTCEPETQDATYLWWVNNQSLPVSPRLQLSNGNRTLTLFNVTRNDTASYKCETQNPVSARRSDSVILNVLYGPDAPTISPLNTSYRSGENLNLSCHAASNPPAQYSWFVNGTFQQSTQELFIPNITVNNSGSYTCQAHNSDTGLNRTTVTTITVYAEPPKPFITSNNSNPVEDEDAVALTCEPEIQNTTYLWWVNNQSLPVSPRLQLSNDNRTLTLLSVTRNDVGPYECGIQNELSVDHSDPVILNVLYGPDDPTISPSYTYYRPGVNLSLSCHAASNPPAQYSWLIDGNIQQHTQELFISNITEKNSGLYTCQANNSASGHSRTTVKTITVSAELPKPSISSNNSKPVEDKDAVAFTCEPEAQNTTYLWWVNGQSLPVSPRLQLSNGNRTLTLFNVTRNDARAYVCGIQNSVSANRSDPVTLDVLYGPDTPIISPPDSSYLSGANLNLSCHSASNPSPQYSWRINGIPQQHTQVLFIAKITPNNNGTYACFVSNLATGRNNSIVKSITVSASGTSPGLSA
Procedure: as §1, §2

Human-CEACAM6 (AB)-His = molecular target: T5, Human-CEACAM6 (AB)-His (human, UniProt P40199 145-314); experiment: SPR (Biacore), antibody captured on CM5 chip, antigen as analyte, 1:1 model
T5 construct: Made in house, purified on a nickel column
T5 sequence (P40199 other isoform, or with tags, fused parts or gaps limits assumed): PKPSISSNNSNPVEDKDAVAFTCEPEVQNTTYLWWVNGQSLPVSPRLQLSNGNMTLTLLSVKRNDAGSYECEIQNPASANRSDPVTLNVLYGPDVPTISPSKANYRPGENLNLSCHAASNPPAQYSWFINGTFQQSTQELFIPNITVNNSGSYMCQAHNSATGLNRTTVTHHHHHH
Procedure: (§3) The CM5 sensor chip was activated at a flow rate of 10 μL/min for 420 seconds. The channel was then injected with 30 μg/mL of anti-rat Fc IgG in 10 mM NaAc (pH 4.5) at a flow rate of 10 μL/min. The chip was inactivated with 1 M ethanolamine-hydrochloric acid (GE) for 420 seconds at a flow rate of 10 μL/min.
(§4) Candidate antibodies in running buffer 1×HBS-EP+ (10 mM HEPES, 150 mM NaCl, 3 mM EDTA, 0.05% Tween 20, pH 7.4) were captured onto Fc2 with anti-rat Fc IgG at a flow rate of 10 μL/min. The 10 nM human CEACAM5-his protein or CEACAM-6-his or CEACAM6 (AB)-his protein and running buffer were sequentially injected into Fc1-Fc2 at a flow rate of […], bound for 180 seconds, and then dissociated for 3600 seconds. 10 mM glycine (pH 1.5) was injected as regeneration buffer after each dissociation.
(§5) Result plots for the reference channel Fc1 and the buffer channel were subtracted from the test result plots. The experimental data fit the 1:1 binding model. The molecular weight of 110 KDa was used to calculate the molar concentration of CEACAM5 protein, 55 KDa for human CEACAM6-his, and 55 KDa for human CEACAM6 (AB)-his.

[4] = molecular target: T1, human CEACAM5-his (ACRO CE5-H5226); experiment: as above
Procedure: as §3, §4, §5

[5] = molecular target: T6, human CEACAM6-his (ACRO CE6-H5223) (human, UniProt P40199 35-320); experiment: as above
T6 construct: Bought protein; not shown: His tag
T6 sequence (looked up): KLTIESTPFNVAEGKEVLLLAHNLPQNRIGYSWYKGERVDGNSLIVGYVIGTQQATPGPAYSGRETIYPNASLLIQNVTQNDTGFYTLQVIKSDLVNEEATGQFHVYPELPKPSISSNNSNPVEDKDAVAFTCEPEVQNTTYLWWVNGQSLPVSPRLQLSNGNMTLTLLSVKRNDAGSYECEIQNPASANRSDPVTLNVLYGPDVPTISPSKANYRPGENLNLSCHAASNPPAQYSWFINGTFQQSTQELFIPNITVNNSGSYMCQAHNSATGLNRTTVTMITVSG
Procedure: as §3, §4, §5

Binder	EC50 (read off the curve) [1] [ng/mL]	OD (mouse CEACAM5) [OD]	EC50 (read off the curve) [2] [nM]	EC50 (read off the curve) [3] [nM]	Kd (Human-CEACAM6 (AB)-His) [nM]	Kd [4] [nM]	Kd [5] [nM]
Antibody 10 (antibody, V domains shown, Mouse-derived hybridoma antibody; also called mouse-derived antibody 10) VH: QVQLQQSGPELVRPGVSVKISCKGSGYTFTDFAMHWVRQSHSKSLEWVGIITTYGGDTNYNQKFRGKATMTVDRSSSTVFLELARLTSEDSAIYYCARNRAYRFFYAMDYWGQGTSVTVSS VL: DIQMTQSPASLSASVGETVTITCGASENIYGALNWYQRKQGKSPHLLIYGATNLADGMSSRFSGSGSAGQYSLNISSLHPDDVATYYCQNVLFAPYTFGGGTRLEIK	~9	0.15	~7	~7			
Antibody 11 (antibody, V domains shown, Mouse-derived hybridoma antibody; also called mouse-derived antibody 11) VH: QVQLQQSGPELVRPGVSVKISCKGSGYTFTDFAIHWVRQSHSRSLEWVGIITTYGGDTNYNQKFRGKATMTVDKSSSTVFLELARLTSEDSAIYYCARNRAYRFFYAMDYWGQGTSVTVSS VL: DIQMTQSPASLSASVGETVTITCGASENIYGALNWYQRKQGKSPQLLIYGATNLADGMSSRFSGSGSAGQYSLNISSLHPDDVATYYCQSVLFAPYTFGGGTRLEIK	~10		~4	~4			
Antibody 15 (antibody, V domains shown, Mouse-derived hybridoma antibody; also called mouse-derived antibody 15) VH: QVQLQQPGAELVKPGASVTLSCKASGYTFTSYWINWVKQRPGQGLEWIGNIYPYTSSSNYNEKFKGKATLTVDTSSNTAYMQLSGLTSDDSAVYFCARKGNIYYSYESYPLDFWGQGTSVTVSS VL: DIQMTQSSSSFSVSLGDRVTITCKASEDIYKQIGWYQQKPGNAPRLLIAGATSLETGVPSRFSGSGSGKDYMLNITSLQTEDVGSYYCQQYWSPPFTFGSGTKLEIK					< 0.001	7.64	3.83
